Molecular target: GII.4 norovirus
Assay: capture on a column of Con A-linked resin, real-time RT-PCR; the dilution applied held about 3.39 copies/µL; no Ct value in the non-Con A-linked resin

Concanavalin A (Con A) (Sigma-Aldrich, USA) (from UniProt P02866 30-281)
virus concentrated through the Con A-linked resin column: 2.16 copies/µL
